Reference: US20230025525A1 (HELMHOLTZ ZENTRUM M NCHEN DEUTSCHES FORSCHUNGSZENTRUM F R …, published 2023)
Where a chain is given by its changes, count along the chain named. Blank lines part the entries; values can stand above or below the binder they belong to.

Target: T1, human IGFR-like receptor (UPF0577 protein KIAA1324) (human, UniProt Q6UXG2 42-1013)
T1 construct: Endogenous protein in lysates of human MCF7 cells and human islet cells, seen as a band of ~130 kDa on Western blot; also called IGFR-I; IGF3R
T1 sequence: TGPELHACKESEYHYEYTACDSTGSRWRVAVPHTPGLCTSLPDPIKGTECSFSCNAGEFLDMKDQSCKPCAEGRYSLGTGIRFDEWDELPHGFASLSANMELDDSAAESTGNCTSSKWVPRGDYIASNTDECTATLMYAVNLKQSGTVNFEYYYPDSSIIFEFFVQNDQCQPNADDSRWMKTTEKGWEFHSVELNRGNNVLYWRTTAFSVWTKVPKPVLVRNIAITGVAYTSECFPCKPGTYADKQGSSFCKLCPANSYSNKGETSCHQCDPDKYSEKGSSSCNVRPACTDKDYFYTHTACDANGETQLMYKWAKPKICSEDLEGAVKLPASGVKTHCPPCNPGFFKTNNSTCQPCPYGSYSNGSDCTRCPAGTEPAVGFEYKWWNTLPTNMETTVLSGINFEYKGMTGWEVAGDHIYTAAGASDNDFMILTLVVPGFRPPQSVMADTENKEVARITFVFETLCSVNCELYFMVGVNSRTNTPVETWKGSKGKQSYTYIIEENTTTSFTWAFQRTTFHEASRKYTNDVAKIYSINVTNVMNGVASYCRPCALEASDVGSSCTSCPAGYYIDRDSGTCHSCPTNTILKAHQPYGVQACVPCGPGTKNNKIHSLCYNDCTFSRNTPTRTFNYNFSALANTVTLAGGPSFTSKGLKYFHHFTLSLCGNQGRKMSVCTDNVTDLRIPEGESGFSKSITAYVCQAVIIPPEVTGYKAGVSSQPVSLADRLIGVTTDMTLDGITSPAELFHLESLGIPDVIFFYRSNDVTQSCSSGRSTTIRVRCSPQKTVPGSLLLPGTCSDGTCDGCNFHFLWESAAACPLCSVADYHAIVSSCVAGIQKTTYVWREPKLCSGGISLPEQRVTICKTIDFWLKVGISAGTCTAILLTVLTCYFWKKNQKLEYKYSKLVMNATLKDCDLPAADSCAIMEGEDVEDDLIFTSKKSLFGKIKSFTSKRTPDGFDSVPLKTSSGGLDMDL
Assay: Western blot, MCF7 cell lysate (strong)
Text: FIG. 29: Detection of IGFR-like receptor in mouse Min6 insulinoma cells and human MCF7 breast cancer cells using antibody against the extracellular domain of IGFR-like receptor. Western blotting experiments show specific recognition of a protein band of ˜130 kDa in Min6 (weak) and MCF7 (strong) cell lysates by an antibody against the extracellular domain SEQ ID NO: 4 (EIG-B 1862: VHC: SEQ ID NO:31, VLC: SEQ ID NO:32; and 10D9: VHC: SEQ ID NO:33, VLC: SEQ ID NO:34) and SEQ ID NO: 6 (EIG-D 26D7: VHC: SEQ ID NO:35, VLC: SEQ ID NO:36). The EIG-B clones are monoclonal antibodies generated against the peptide SEQ ID NO: 4 in rat, whereas the EIG-D clone is a monoclonal antibody generated against the SEQ ID NO: 6 in mouse.
Cells and tissues were lysed in RIPA buffer (50 mM Tris pH7.5, 150 mM NaCl, 1 mM EDTA, 1% IGEPAL, 0.1% SDS, 0.1% Na deoxycholate) containing a cocktail of proteinase inhibitor (1:100, Sigma, P8340) and phosphatases inhibitors (1:100, Sigma Aldrich, #2 P0044 and #3 P5726) and the cell or tissue lysates were cleared by centrifugation at 13000 r.p.m. for 10-30 min. The proteins (10-20 μg) were resolved in 6.5-15% SDS-PAGE according to the protein size to be detected and transferred to a PVDF membrane. Primary antibodies were added to the membrane in 5% milk and incubated at 4° C. overnight. Protein bands were visualized on Hyperfilms™ (GE healthcare, 28906837) or Blaufilme™ CEA-RP (Ernst Christiansen GmbH, EC84A) by chemiluminescent detection (ECL, Millipore, WBKLS0500).

binding result: binds
B1: EIG-B 18B2 (antibody, V domains shown)
VH: QVQLKESGPGLVQPSQTLSLTCTVSGFSLTSYHISWVRQPPGKGLEWIAAISSGGDTYYNSLLKSRLSISRDTSKSQVFLKMNRLQTEDTAFYFCNGESYWGQGTLVTVSS
VL: DVVLTQSPATLSVTPGERISLSCRASENIDTYLHWFQQKPNESPRLLIKFASQSISGIPSRFSGSGSGRDFTLSINGVELEDLSIYYCQQGNILPYTFGAGTRLELKR
notes: Rat monoclonal antibody from a hybridoma; Only the variable regions are tied to the clone by name; also called EIG-B 1862

binding result: binds
B2: EIG-B 10D9 (antibody, V domains shown)
VH: B1 VH
VL: B1 VL with R69T, R103K
notes: Rat monoclonal antibody from a hybridoma; Only the variable regions are tied to the clone by name; The constant regions are not tied to the clone

binding result: binds
B3: EIG-D 26D7 (antibody, V domains shown)
VH: QVQLQQPGADLVRPGSSVKLSCKASGYSFTSYWMDWVKQRPGQGLEWIGNIYPSDGETHYNQKFKDKATLTVDKSSSTAYMQLSSLTSEDSAVYYCARLYSEYGSWGQGTTLTVSS
VL: DIVMTQSPSSLTVTTGEKVTMSCKSSQSLLNSGNQKNYLTWYQQRPGQPPKLLIYWASTRDSGVPDRFTGSGSGTDFTLTISSVQAADLAVYYCQNDYSYPLTFGAGTKLELKR
notes: Mouse monoclonal antibody from a hybridoma; Only the variable regions are tied to the clone by name; The constant regions are not tied to the clone
